Reference: patent publication CN113667018A

Target: N-Ras蛋白 (UniProt P01111)
Assay: indirect ELISA; N-Ras coated at 5 ug/ml, fusion protein diluted 1:100 to 1:3200, anti-His-tag antibody then HRP goat anti-mouse IgG, OD450
Details: scale: dilution factor

Sequence of UniProt P01111 (P01111 whole entry, the tested form may be a part): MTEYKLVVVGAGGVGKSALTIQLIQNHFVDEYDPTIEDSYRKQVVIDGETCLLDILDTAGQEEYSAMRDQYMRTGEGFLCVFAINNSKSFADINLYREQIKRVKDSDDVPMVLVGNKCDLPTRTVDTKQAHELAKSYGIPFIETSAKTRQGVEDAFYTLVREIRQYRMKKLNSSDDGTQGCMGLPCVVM

结合效价 (ELISA titer): 800
B1: BR2-抗p21Ras单链抗体融合蛋白 (scFv, V domains shown, not shown: small tags and cut ends)
VH: QVKLQESGEGLVKPGGSLKLSCAASGFTFSDYYMYWVRQTPEKRLEWVAIISDGGSYTYYPDSVKGRFTISRDNTKKNLYLQMSSLRSEDTAMYYCARDPHYSGSSRLFVNWGQGTTVTVSS
